Measurements taken from patent publication US20180057542A1 (University of Washington, published 2018).

How the values were obtained:
[1] = target: T1, urea-expanded bacteriophage lambda capsid shell (bacteriophage lambda, UniProt P03713 1-341; P03710 23-533); assay: in vitro capsid decoration, SDS-PAGE of isolated decorated capsids
T1 construct: also called expanded capsid; expanded capsid lattice
T1 sequence 1: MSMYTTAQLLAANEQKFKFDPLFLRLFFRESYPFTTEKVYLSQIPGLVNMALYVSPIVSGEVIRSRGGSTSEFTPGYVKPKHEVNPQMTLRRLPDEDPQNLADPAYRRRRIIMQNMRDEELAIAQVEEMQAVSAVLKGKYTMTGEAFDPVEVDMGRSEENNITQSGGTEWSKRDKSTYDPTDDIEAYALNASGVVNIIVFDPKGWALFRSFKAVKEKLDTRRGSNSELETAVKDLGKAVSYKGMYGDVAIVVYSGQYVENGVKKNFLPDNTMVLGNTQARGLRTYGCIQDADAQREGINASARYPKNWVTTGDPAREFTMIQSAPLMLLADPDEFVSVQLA
T1 sequence 2: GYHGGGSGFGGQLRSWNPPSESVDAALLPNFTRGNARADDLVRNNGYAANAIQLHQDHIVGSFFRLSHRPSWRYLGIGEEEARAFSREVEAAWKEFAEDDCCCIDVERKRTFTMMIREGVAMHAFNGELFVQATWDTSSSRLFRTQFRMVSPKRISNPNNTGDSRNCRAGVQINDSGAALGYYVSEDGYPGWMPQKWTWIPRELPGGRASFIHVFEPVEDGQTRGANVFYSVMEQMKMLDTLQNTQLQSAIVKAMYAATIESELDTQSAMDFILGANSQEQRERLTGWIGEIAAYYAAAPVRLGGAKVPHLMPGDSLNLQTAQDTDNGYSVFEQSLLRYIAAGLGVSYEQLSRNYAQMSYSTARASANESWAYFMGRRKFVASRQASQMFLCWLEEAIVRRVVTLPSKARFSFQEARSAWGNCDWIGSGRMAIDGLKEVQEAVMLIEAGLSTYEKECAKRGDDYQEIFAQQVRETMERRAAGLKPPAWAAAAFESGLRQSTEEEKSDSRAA

[2] = target: T2, Concanavalin A (UniProt P02866 30-281); assay: agglutination assay (absorbance at 350 nm) of decorated capsids with Concanavalin A
T2 construct: Used at 1 uM in the agglutination assay; It recognises the mannose conjugated to gpD(S42C); also called Con A; ConA

[3] = target: T1, urea-expanded bacteriophage lambda …; assay: SDS-PAGE of capsids decorated with gpD-WT alone and separated from unreacted protein

| Binder | Surface Density (% relative to gpD) [1] | binding result [2] | ratio of major capsid protein (gpE) to gpD-WT in the decorated particles [3] |
| --- | --- | --- | --- |
| wild-type bacteriophage lambda gpD decoration protein (other, Monomer in solution; adds to the expanded capsid as trimer spikes at the 140 three-fold axes (420 copies per shell); also called gpD-WT; gpD-wt) MTSKETFTHYQPQGNSDPAHTATAPGGLSAKAPAMTPLMLDTSSRKLVAWDGTTDGAAVGILAVAADQTSTTLTFYKSGTFRYEDVLWPEAASDETKKRTAFAGTAISIV | 100 % relative to gpD | no binding (tested: 1 µM ConA, 1 µM gpD equivalent) | ~1 ratio gpE:gpD-WT |
| gpD(S42C) (other) MTSKETFTHYQPQGNSDPAHTATAPGGLSAKAPAMTPLMLDTCSRKLVAWDGTTDGAAVGILAVAADQTSTTLTFYKSGTFRYEDVLWPEAASDETKKRTAFAGTAISIV | 90 % relative to gpD | no binding (tested: 1 µM ConA, 1 µM gpD equivalent) |  |
| gpD(S42C::sMannose) (other, 6'-maleimidohexanamido-polyethyleneglycol mannoside (sMannose) on Cys42 (numbering without the N-terminal methionine), The presence of the H6 tag is therefore not certain; also called gpD-mannose; gpD glycoprotein) HHHHHHMTSKETFTHYQPQGNSDPAHTATAPGGLSAKAPAMTPLMLDTCSRKLVAWDGTTDGAAVGILAVAADQTSTTLTFYKSGTFRYEDVLWPEAASDETKKRTAFAGTAISIV | 82 % relative to gpD |  |  |
| H6-gpD-GFP (other, HIS-tagged fusion of an N-terminal gpD domain and a C-terminal GFP domain; also called gpD-Green Fluorescent Protein; GFP-tagged gpD) HHHHHHMTSKETFTHYQPQGNSDPAHTATAPGGLSAKAPAMTPLMLDTSSRKLVAWDGTTDGAAVGILAVAADQTSTTLTFYKSGTFRYEDVLWPEAASDETKKRTAFAGTAISIV | 77 % relative to gpD |  |  |
